From paper doi:10.1101/2023.12.18.571367
Values joined by “and” are separate entries in the source; they are usually repeats but may differ in a detail not shown here. Identical values can stand only once.

Biological target: NRC4 (NLR required for cell death 4) with the mutations L9E and D478V
Test: cryo-EM structure

## NRC4 (NLR required for cell death 4) with the mutations L9E and D478V (natural protein)
  stoichiometry N: 6 and 12
